B1: CD18 I-domain (Cloud-Clone) (domain or fragment)
chain: GYPIDLYYLMDLSYSMLDDLRNVKKLGGDLLRALNEITESGRIGFGSFVDKTVLPFVNTHPDKLRNPCPNKEKECQPPFAFRHVLKLTNNSNQFQTEVGKQLISGNLDAPEGGLDAMMQVAACPEEIGWRNVTRLLVFATDDGFHFAGDGKLGAILTPNDGRCHLEDNLYKRSNEFDYPSVGQLAHKLAENNIQPIFAVTSRMVKTYEKLTEIIPKSAVGELSEDSSNVVHLIKNAYNKL
B2: biotinylated TAMpep (peptide)
chain: VLTTGLPALISWIKRKRQQ
modifications: also: biotin, position not given here

Where no end group is shown, it is not given here.

The target of the test “biotinylated TAMpep” is B2. Nature of the test: SPR.
For test [1], the target named is CD18 cysteine-rich domain (Cloud-Clone). In words: SPR. (SPR reads the build-up and loss of mass on a sensor chip optically.)

One may read the Kd as the concentration at which binding is half-saturated. The low end stands for higher affinity, the high end for lower affinity. B1 registered a Kd with biotinylated TAMpep of 4.7 nM.

In test [1], B2 gave a Kd of 0.185 nM.
